According to PMC8311496:

Tested on: PE6 (Mycobacterium tuberculosis)
Details: 10 mM Tris-HCl pH 7.4, 100 mM NaCl, 298 K (fluorescence titration)

Work on dsDNA (unspecified) yielded a Kd of 1.4 µM.
